Assay [1] concerns the target T1, PSMA Fab.
T1 construct: also called 006 PSMA Fab; anti-PSMA Fab
The assay is described as follows: BLI (Octet); PSMA Fab on sensor-loaded biotinylated peptide, 1:1 model.

The target of assay [2] is T1, PSMA Fab. The assay is described as follows: binding ELISA; PSMA Fab titrated on plate-captured biotinylated peptide.
Assay [3] deals with T1, PSMA Fab. The assay is described as follows: competition ELISA; peptide 0-100 µM with 0.3 nM PSMA Fab on plate-captured biotinylated PSMA.
In assay [4] the target is T1, PSMA Fab. The assay is described as above. The source holds these as a separate data set.
Method: (§1) The concentration of peptide required to reduce the maximum signal by 50% (IC₅₀) was calculated in Graphpad Prism software.
For assay [5], the target named is T2, Anti-CD28 scFv (VH - linker 1 - VL) (biotinylated (site not stated)). The assay is described as follows: clonal phage ELISA on anti-CD28 scFv plate; wells pre-incubated with soluble CD28 as competitor.
Assay [6] concerns the target T2, Anti-CD28 scFv (VH - linker 1 - VL). The assay is described as follows: clonal phage ELISA; biotinylated anti-CD28 scFv on neutravidin plate, bound phage detected with anti-M13 HRP.
Method: Clonal phage were harvested as crude supernatants and screened via standard enzyme linked immunosorbent assays (ELISAs). […] Prior to the addition of clonal phage, wells were incubated with blocking buffer and CD28 soluble protein or blocking buffer alone. Without washing or aspirating, clonal phage supernatants were then added to the wells and incubated for a short time. Wells were then washed followed by detection of bound phage using a horse radish peroxidase conjugated anti-M13 antibody.
For assay [7], the target named is anti-CD28 Fab. The assay is described as follows: competition ELISA, peptide titrated 0-100 uM against 1 nM anti-CD28 Fab, plate-bound CD28 as competitor.
Target sequence in this assay (VH, as listed by the source, chain 1 of 2): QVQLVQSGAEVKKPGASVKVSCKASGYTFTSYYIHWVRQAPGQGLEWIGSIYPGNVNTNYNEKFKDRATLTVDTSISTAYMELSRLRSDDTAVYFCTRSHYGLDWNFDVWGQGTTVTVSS
Target sequence in this assay (VL, as listed by the source, chain 2 of 2): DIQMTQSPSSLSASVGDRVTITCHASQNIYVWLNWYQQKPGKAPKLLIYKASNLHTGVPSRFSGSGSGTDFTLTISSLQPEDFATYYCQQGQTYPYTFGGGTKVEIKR
Assay [8] concerns the target anti-CD28 Fab. The assay is described as follows: BLI (Octet): biotinylated peptide on streptavidin sensor, anti-CD28 Fab titrated in solution, 1:1 model.
Target sequence in this assay (VH, as listed by the source, chain 1 of 2): as the sequence (VH, as listed by the source, chain 1 of 2) above
Target sequence in this assay (VL, as listed by the source, chain 2 of 2): as the sequence (VL, as listed by the source, chain 2 of 2) above
Assay [9] has as its target T3, anti-CD28 scFv (disulfide).
T3 construct: also called Anti-CD28 scFv (VH - linker 1 - VL) Disulfide mutation: G44C, G235C
The assay is described as follows: competition ELISA: peptide titrated (0-100 µM) with 0.3 nM anti-CD28 scFv (disulfide), binding to plate-bound CD28.

The target in assay [10] is anti-CD28 Fab. The assay is described as follows: competition ELISA, peptide titrated 0-100 uM against 1 nM anti-CD28 Fab, plate-bound CD28 as competitor. This is another data set of the same source.
Target sequence in this assay (VH, as listed by the source, chain 1 of 2): as the sequence (VH, as listed by the source, chain 1 of 2) above
Target sequence in this assay (VL, as listed by the source, chain 2 of 2): as the sequence (VL, as listed by the source, chain 2 of 2) above
The target in assay [11] is anti-CD28 Fab. The assay is described as above. The source holds these as a separate data set.
Target sequence in this assay (VH, as listed by the source, chain 1 of 2): as the sequence (VH, as listed by the source, chain 1 of 2) above
Target sequence in this assay (VL, as listed by the source, chain 2 of 2): as the sequence (VL, as listed by the source, chain 2 of 2) above
Assay [12] concerns the target T1, PSMA Fab. The assay is described as follows: competition ELISA; peptide 0-100 µM with 0.3 nM PSMA Fab on plate-captured biotinylated PSMA. This is another data set of the same source.
Method: as §1

Like-named read-outs stand apart in the source and are kept apart here. Where no end group is shown, it is not given here.

The results in this text go back to patent publication US20260242478A1 (published 2026).

T2 sequence (scFv, as listed by the source): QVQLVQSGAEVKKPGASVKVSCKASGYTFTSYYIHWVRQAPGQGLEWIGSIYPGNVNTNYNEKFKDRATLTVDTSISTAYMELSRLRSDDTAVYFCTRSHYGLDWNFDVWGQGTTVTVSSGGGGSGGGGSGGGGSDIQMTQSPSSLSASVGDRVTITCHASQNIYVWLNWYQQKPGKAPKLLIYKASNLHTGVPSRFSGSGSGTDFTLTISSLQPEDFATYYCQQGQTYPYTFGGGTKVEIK
T3 sequence (scFv, as listed by the source): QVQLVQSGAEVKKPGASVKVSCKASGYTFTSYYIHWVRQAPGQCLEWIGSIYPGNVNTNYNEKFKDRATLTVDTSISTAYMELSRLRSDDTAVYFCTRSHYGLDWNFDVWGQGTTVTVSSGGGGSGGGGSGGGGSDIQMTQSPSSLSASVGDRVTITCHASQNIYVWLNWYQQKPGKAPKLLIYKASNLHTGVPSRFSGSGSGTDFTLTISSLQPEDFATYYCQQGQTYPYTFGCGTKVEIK

B1: Peptide-179 (peptide)
peptide: LMKWCTPRWMCAAE
modifications: cysteine pairing not given here; also: biotinylated, site not given here
notes: PSMA mask peptide
On to B1, for which, in assay [1], the “Off rate t1/2” value was 1.2 min. Also, the EC50 in assay [2] is 0.11 µM. Further, the figures for the IC50 in [3] and in assay [4] were 7.71 µM and 6.49 µM, respectively.

B2: Peptide-247 (peptide)
peptide: LMKWCTPAWMCAAE
In [4], B2 had an IC50 of 19.7 µM.

B3: Peptide-245 (peptide)
peptide: LMKWCAPRWMCAAE
For the molecule B3, the IC50 in assay [4] stood at 49.7 µM.

B4: Peptide-242 (peptide)
peptide: LAKWCTPRWMCAAE
Molecule B4 displayed an IC50 in [4] of 13.7 µM.

B5: Peptide-243 (peptide)
peptide: LMAWCTPRWMCAAE
B5 yielded an IC50 in assay [4] of 40.8 µM.

B6: Peptide-250 (peptide)
peptide: LMKWCTPRWMCAAA
Regarding B6, in assay [4], the IC50 worked out at 6.64 µM.

B7: Peptide-244 (peptide)
peptide: LMKACTPRWMCAAE
In the case of B7, the IC50 in assay [4] stood at 34.5 µM.

B8: Peptide-241 (peptide)
peptide: AMKWCTPRWMCAAE
In assay [4], B8 showed an IC50 of 9.16 µM.

B9: Peptide-225 (peptide)
peptide: IPKSCIPSWMCTGF
Regarding B9, the “Off rate t1/2” value in assay [1] is 2.1 min. For the same molecule, the response in [2] was half-maximal at 0.0097 µM (EC50). For the same molecule, the IC50 in assay [3] turned out to be 0.34 µM.

B10: Phage-449 (peptide)
peptide: MVDCPLISFDECLA
notes: Clone of the Peptide-9 optimisation library
Regarding B10, in assay [5], the “CD28 scFv signal in presence of CD28” value came out at 0.076. Besides, the “CD28 scFv signal” value in [6] was 0.07.

B11: Peptide-233 (peptide)
peptide: GEKWCIPDWMCSGF
Regarding B11, the “Off rate t1/2” value in assay [1] came out at 3.9 min. A half-maximal effect in [2] (EC50) was put at 0.0069 µM. In assay [3], this molecule displayed an IC50 of 0.36 µM.

B12: Peptide-239 (peptide)
peptide: IDIRCTPIWMCVGF
Regarding B12, the “Off rate t1/2” value in [1] was determined as 2 min. Moreover, the EC50 in [2] is 0.0094 µM. The molecule also showed an IC50 in [3] of 0.62 µM.

B13: Peptide-98 (peptide)
peptide: YCAGHSHEYLAKCE
B13 returned an IC50 in assay [7] of 7.04 µM.

B14: Peptide-232 (peptide)
peptide: LDKWCVPKWMCSGL
Regarding B14, the “Off rate t1/2” value in [1] worked out at 2.1 min. In assay [2], this molecule showed an EC50 of 0.0072 µM. The IC50 in assay [3] worked out at 0.96 µM.

B15: Phage-452 (peptide)
peptide: MDWCPRDWWHMCFN
notes: as for B10
Take B15: in assay [5], the “CD28 scFv signal in presence of CD28” value is 0.243. The “CD28 scFv signal” value in [6] was determined as 2.12.

B16: Peptide-236 (peptide)
peptide: DVKLCKPEWMCYGL
As for B16, the “Off rate t1/2” value in assay [1] was determined as 1.8 min. This molecule displayed an EC50 in [2] of 0.0198 µM. In [3], this molecule returned an IC50 of 0.38 µM.

B17: Phage-445 (peptide)
peptide: MDWCPRARWHDCFF
notes: as for B10
With B17, the “CD28 scFv signal in presence of CD28” value in assay [5] amounted to 0.138. In assay [6], the “CD28 scFv signal” value amounted to 0.497.

B18: Peptide-95 (peptide)
peptide: YCAGHMPQYEVKCL
For the molecule B18, the IC50 in [7] was 43.6 µM.

B19: Phage-442 (peptide)
peptide: IYWCPIDRWNDCYN
notes: as for B10
Take B19: the “CD28 scFv signal in presence of CD28” value in [5] worked out at 0.164. The “CD28 scFv signal” value in assay [6] came out at 0.867.

B20: Phage-448 (peptide)
peptide: MAWCPWASFDECLA
notes: as for B10
On to B20, for which the “CD28 scFv signal in presence of CD28” value in assay [5] was determined as 0.109. In addition, the “CD28 scFv signal” value in [6] came out at 0.089.

B21: Peptide-96 (peptide)
peptide: YCAGHTEEHYVKCM
In assay [7], B21 yielded an IC50 of 7.59 µM.

B22: Peptide-97 (peptide)
peptide: YCMGHSHEHIWKCL
B22: in assay [7], the IC50 was 69.1 µM.

B23: Peptide-132 (peptide)
peptide: YCEGHLPEYRNKCL
modifications: cysteine pairing not given here; also: biotinylated, site not given here
Consider B23, for which, in assay [8], binding was put at a Kd of 0.11 µM and the “t1/2” value came out at 0.8 min. The molecule also returned an IC50 in assay [9] of 0.78 µM.

B24: Peptide-134 (peptide)
peptide: YCEGHLPEYIQKCL
modifications: not fully specified; cysteine pairing not given here; also: biotinylated, site not given here
Take B24: the “t1/2” value in assay [8] amounted to 1 min. Besides, the IC50 in assay [9] was 0.48 µM.

B25: Peptide-92 (peptide)
peptide: SCAAGASYAWPYCL
Consider B25, for which the IC50 worked out at 7.89 µM in assay [10], 11.8 µM in assay [11] and 2.39 µM in assay [7].

B26: Phage-450 (peptide)
peptide: EDWCPTDVWPYCFS
notes: as for B10
Consider B26, for which, in [5], the “CD28 scFv signal in presence of CD28” value is 0.157. In addition, the “CD28 scFv signal” value in assay [6] worked out at 0.711.

B27: Phage-446 (peptide)
peptide: MDWCPRDRWDDCFN
notes: as for B10
With B27, the “CD28 scFv signal in presence of CD28” value in assay [5] worked out at 0.077. Also, the “CD28 scFv signal” value in assay [6] was determined as 0.45.

B28: Peptide-219 (peptide)
peptide: HVKLCKPAWMCQGL
B28: in [1], the “Off rate t1/2” value came to 2.9 min. For the same molecule, the midpoint of the response in [2], the EC50, lay at 0.0061 µM.

B29: Phage-453 (peptide)
peptide: MDWCPSDYWYVCFA
notes: as for B10
As for B29, the “CD28 scFv signal in presence of CD28” value in assay [5] stood at 0.08. In addition, the “CD28 scFv signal” value in [6] stood at 0.707.

B30: Peptide-251 (peptide)
peptide: AAVLCQPNWMCAGF
notes: Alanine-scan variant I1A of Peptide-180
With B30, the IC50 in assay [12] worked out at 8.45 µM.

B31: Peptide-259 (peptide)
peptide: IAVLCQPNWMCAAF
notes: Alanine-scan variant G13A of Peptide-180
For B31, the IC50 in assay [12] was 67.9 µM.

B32: Peptide-256 (peptide)
peptide: IAVLCQPAWMCAGF
notes: Alanine-scan variant N8A of Peptide-180
In turn, B32 displayed an IC50 in assay [12] of 2.16 µM.

B33: Peptide-254 (peptide)
peptide: IAVLCAPNWMCAGF
notes: Alanine-scan variant Q6A of Peptide-180
With B33, the IC50 in assay [12] was 15.7 µM.

B34: Peptide-260 (peptide)
peptide: IAVLCQPNWMCAGA
notes: Alanine-scan variant F14A of Peptide-180
Consider B34, for which the IC50 in assay [12] is 60 µM.

B35: Peptide-253 (peptide)
peptide: IAVACQPNWMCAGF
notes: Alanine-scan variant L4A of Peptide-180
In turn, B35 gave an IC50 in [12] of 28.2 µM.

B36: Peptide-252 (peptide)
peptide: IAALCQPNWMCAGF
notes: Alanine-scan variant V3A of Peptide-180
In turn, B36 gave an IC50 in [12] of 5.7 µM.

B37: Phage-451 (peptide)
peptide: MDWCPRFWWHECYA
notes: as for B10
For the molecule B37, the “CD28 scFv signal in presence of CD28” value in [5] was 0.503. Besides, the “CD28 scFv signal” value in assay [6] amounted to 2.4.

B38: Phage-443 (peptide)
peptide: MDWCPMTRWNDCYF
notes: as for B10
Consider B38, for which the “CD28 scFv signal in presence of CD28” value in assay [5] was 0.078. The “CD28 scFv signal” value in assay [6] is 0.671.

B39: Peptide-230 (peptide)
peptide: VTKWCIPPWMCEVT
Take B39: the “Off rate t1/2” value in assay [1] worked out at 6.4 min.

B40: Peptide-227 (peptide)
peptide: LDNWCKPSWMCTGF
Turning to B40, the “Off rate t1/2” value in [1] is 2.1 min. In [2], this molecule displayed an EC50 of 0.0077 µM. The IC50 in assay [3] was found to be 0.76 µM.

B41: Phage-447 (peptide)
peptide: MDWCPRDRWDVCYY
notes: as for B10
Regarding B41, the “CD28 scFv signal in presence of CD28” value in assay [5] amounted to 0.073. In addition, in assay [6], the “CD28 scFv signal” value came to 0.074.

B42: Peptide-235 (peptide)
peptide: VEKLCTPIWMCLGF
In the case of B42, in [1], the “Off rate t1/2” value turned out to be 2.3 min. Besides, in assay [2], the EC50 was 0.0105 µM. Besides, in assay [3], the IC50 worked out at 0.32 µM.
